Laboratory results taken from patent US12269859B2, “Synthetic immune receptors and methods of use thereof” (Angeles Therapeutics, Inc., priority 2016, dated 2025).

B1: 042517-B02 (protein)
chain: MALPVTALLLPLALLLHAARPQSALTQPASASGSPGQSVTISCTGTSSDVGGYNYVSWYQQHPGKAPKLMIYDVSNRPSGVSNRFSGSKSGNTASLTISGLQAEDEADYYCSSYTSSSTLYVFGTGTQLTVLLEDLKNVFPPEVAVFEPSKAEIAHTQKATLVCLATGFYPDHVELSWWVNGKEVHSGVCTDPQPLKEQPALNDSRYCLSSRLRVSATFWQNPRNHFRCQVQFYGLSENDEWTQDRAKPVTQIVSAEAWGRADCGITSASYHQGVLSATILYEILLGKATLYAVLVSALVLMAMVKRKDSRGRAKRSGSGATNFSLLKQAGDVEENPGPTSMDWIWRILFLVGAATGAHSFEEVQLQQSGPGLVKPSQTLSLTCAISGDSMLSNSDTWNWIRQSPSRGLEWLGRTYHRSTWYDDYASSVRGRVSINVDTSKNQYSLQLNAVTPEDTGVYYCARVRLQDGNSWSDAFDVWGQGTMVTVSSTRIQNPDPAVYQLRDSKSSDKSVCLFTDFDSQTNVSQSKDSDVYITDKCVLDMRSMDFKSNSAVAWSNKSDFACANAFNNSIIPEDTFFPSSDVPCDVKLVEKSFETDTNLNFQNLSVIGFRILLLKVAGFNLLMTLRLWSSRAKRSGSGVKQTLNFDLLKLAGDVESNPGPSRGHMTEYKPTVRLATRDDVPRAVRTLAAAFADYPATRHTVDPDRHIERVTELQELFLTRVGLDIGKVWVADDGAAVAVWTTPESVEAGAVFAEIGPRMAELSGSRLAAQQQMEGLLAPHRPKEPAWFLATVGVSPDHQGKGLGSAVVLPGVEAAERAGVPAFLETSAPRNLPFYERLGFTVTADVEVPEGPRTWCMTRKPGA
B2: 042517-A03 (protein)
chain: MALPVTALLLPLALLLHAARPQSALTQPASASGSPGQSVTISCTGTSSDVGGYNYVSWYQQHPGKAPKLMIYDVSNRPSGVSNRFSGSKSGNTASLTISGLQAEDEADYYCSSYTSSSTLYVFGTGTQLTVLLEIQNPDPAVYQLRDSKSSDKSVCLFTDFDSQTNVSQSKDSDVYITDKCVLDMRSMDFKSNSAVAWSNKSDFACANAFNNSIIPEDTFFPSSDVPCDVKLVEKSFETDTNLNFQNLSVIGFRILLLKVAGFNLLMTLRLWSSRAKRSGSGVKQTLNFDLLKLAGDVESNPGPTSMDWIWRILFLVGAATGAHSFEEVQLQQSGPGLVKPSQTLSLTCAISGDSMLSNSDTWNWIRQSPSRGLEWLGRTYHRSTWYDDYASSVRGRVSINVDTSKNQYSLQLNAVTPEDTGVYYCARVRLQDGNSWSDAFDVWGQGTMVTVSSTREDLKNVFPPEVAVFEPSKAEIAHTQKATLVCLATGFYPDHVELSWWVNGKEVHSGVCTDPQPLKEQPALNDSRYCLSSRLRVSATFWQNPRNHFRCQVQFYGLSENDEWTQDRAKPVTQIVSAEAWGRADCGITSASYHQGVLSATILYEILLGKATLYAVLVSALVLMAMVKRKDSRGRAKRSGSGATNFSLLKQAGDVEENPGPSRGHMTEYKPTVRLATRDDVPRAVRTLAAAFADYPATRHTVDPDRHIERVTELQELFLTRVGLDIGKVWVADDGAAVAVWTTPESVEAGAVFAEIGPRMAELSGSRLAAQQQMEGLLAPHRPKEPAWFLATVGVSPDHQGKGLGSAVVLPGVEAAERAGVPAFLETSAPRNLPFYERLGFTVTADVEVPEGPRTWCMTRKPGA
B3: 062717-O02 (protein)
chain: MALPVTALLLPLALLLHAARPLEGKPIPNPLLGLDSTGSGEDLKNVFPPEVAVFEPSKAEIAHTQKATLVCLATGFYPDHVELSWWVNGKEVHSGVCTDPQPLKEQPALNDSRYCLSSRLRVSATFWQNPRNHFRCQVQFYGLSENDEWTQDRAKPVTQIVSAEAWGRADCGITSASYHQGVLSATILYEILLGKATLYAVLVSALVLMAMVKRKDSRGRAKRSGSGATNFSLLKQAGDVEENPGPTSMALPVTALLLPLALLLHAARPEVQLQQSGPGLVKPSQTLSLTCAISGDSVLSNSDTWNWIRQSPSRGLEWLGRTYHRSTWYDDYASSVRGRVSINVDTSKNQYSLQLNAVTPEDTGVYYCARDRLQDGNSWSDAFDVWGQGTMVTVSSGGGGSGGGGSGGGGSQSALTQPASVSGSPGQSITISCTGTSSDVGGYNYVSWYQQHPGKAPKLMIYDVSNRPSGVSNRFSGSKSGNTASLTISGLQAEDEADYYCSSYTSSSTLVYVFGTGTKVTVLTREQKLISEEDGSGIQNPDPAVYQLRDSKSSDKSVCLFTDFDSQTNVSQSKDSDVYITDKCVLDMRSMDFKSNSAVAWSNKSDFACANAFNNSIIPEDTFFPSSDVPCDVKLVEKSFETDTNLNFQNLSVIGFRILLLKVAGFNLLMTLRLWSSRAKRSGSGVKQTLNFDLLKLAGDVESNPGPSRGHMTEYKPTVRLATRDDVPRAVRTLAAAFADYPATRHTVDPDRHIERVTELQELFLTRVGLDIGKVWVADDGAAVAVWTTPESVEAGAVFAEIGPRMAELSGSRLAAQQQMEGLLAPHRPKEPAWFLATVGVSPDHQGKGLGSAVVLPGVEAAERAGVPAFLETSAPRNLPFYERLGFTVTADVEVPEGPRTWCMTRKPGA
B4: 062717-P06 (protein)
chain: MALPVTALLLPLALLLHAARPLEGKPIPNPLLGLDSTGSGEDLKNVFPPEVAVFEPSKAEIAHTQKATLVCLATGFYPDHVELSWWVNGKEVHSGVCTDPQPLKEQPALNDSRYCLSSRLRVSATFWQNPRNHFRCQVQFYGLSENDEWTQDRAKPVTQIVSAEAWGRADCGITSASYHQGVLSATILYEILLGKATLYAVLVSALVLMAMVKRKDSRGRAKRSGSGATNFSLLKQAGDVEENPGPTSMALPVTALLLPLALLLHAARPEVQLQQSGPGLVKPSQTLSLTCAISGDSVSSNSAAWNWIRQSPSRGLEWLGRTYYRSKWYSDYAVSVKSRITINPDTSKNQFSLQLNSVTPEDTAVYYCARDPYDFWSGYPDAFDIWGQGTMVTVSSGGGGSGGGGSGGGGSQSALTQPASVSGSPGQSITISCTGTSSDVGGYNYVSWYQQHPGKAPKVIISEVNNRPSGVSHRFSGSKSGNTASLTISGLQAEDEADYFCSSYTSGRTLYVFGTGSKVTVLGTREQKLISEEDGSGIQNPDPAVYQLRDSKSSDKSVCLFTDFDSQTNVSQSKDSDVYITDKCVLDMRSMDFKSNSAVAWSNKSDFACANAFNNSIIPEDTFFPSSDVPCDVKLVEKSFETDTNLNFQNLSVIGFRILLLKVAGFNLLMTLRLWSSRAKRSGSGVKQTLNFDLLKLAGDVESNPGPSRGHMTEYKPTVRLATRDDVPRAVRTLAAAFADYPATRHTVDPDRHIERVTELQELFLTRVGLDIGKVWVADDGAAVAVWTTPESVEAGAVFAEIGPRMAELSGSRLAAQQQMEGLLAPHRPKEPAWFLATVGVSPDHQGKGLGSAVVLPGVEAAERAGVPAFLETSAPRNLPFYERLGFTVTADVEVPEGPRTWCMTRKPGA
B5: 062717-Q04 (protein)
chain: MALPVTALLLPLALLLHAARPLEGKPIPNPLLGLDSTGSGEDLKNVFPPEVAVFEPSKAEIAHTQKATLVCLATGFYPDHVELSWWVNGKEVHSGVCTDPQPLKEQPALNDSRYCLSSRLRVSATFWQNPRNHFRCQVQFYGLSENDEWTQDRAKPVTQIVSAEAWGRADCGITSASYHQGVLSATILYEILLGKATLYAVLVSALVLMAMVKRKDSRGRAKRSGSGATNFSLLKQAGDVEENPGPTSMALPVTALLLPLALLLHAARPQSALTQPASASGSPGQSVTISCTGTSSDVGGYNYVSWYQQHPGKAPKLMIYDVSNRPSGVSNRFSGSKSGNTASLTISGLQAEDEADYYCSSYTSSSTLYVFGTGTQLTVLGGGGSGGGGSGGGGSEVQLQQSGPGLVKPSQTLSLTCAISGDSMLSNSDTWNWIRQSPSRGLEWLGRTYHRSTWYDDYASSVRGRVSINVDTSKNQYSLQLNAVTPEDTGVYYCARVRLQDGNSWSDAFDVWGQGTMVTVSSTREQKLISEEDGSGIQNPDPAVYQLRDSKSSDKSVCLFTDFDSQTNVSQSKDSDVYITDKCVLDMRSMDFKSNSAVAWSNKSDFACANAFNNSIIPEDTFFPSSDVPCDVKLVEKSFETDTNLNFQNLSVIGFRILLLKVAGFNLLMTLRLWSSRAKRSGSGVKQTLNFDLLKLAGDVESNPGPSRGHMTEYKPTVRLATRDDVPRAVRTLAAAFADYPATRHTVDPDRHIERVTELQELFLTRVGLDIGKVWVADDGAAVAVWTTPESVEAGAVFAEIGPRMAELSGSRLAAQQQMEGLLAPHRPKEPAWFLATVGVSPDHQGKGLGSAVVLPGVEAAERAGVPAFLETSAPRNLPFYERLGFTVTADVEVPEGPRTWCMTRKPGA
B6: 083116-D03 (protein)
chain: MALPVTALLLPLALLLHAARPLEGKPIPNPLLGLDSTGSGEDLKNVFPPEVAVFEPSKAEIAHTQKATLVCLATGFYPDHVELSWWVNGKEVHSGVCTDPQPLKEQPALNDSRYCLSSRLRVSATFWQNPRNHFRCQVQFYGLSENDEWTQDRAKPVTQIVSAEAWGRADCGITSASYHQGVLSATILYEILLGKATLYAVLVSALVLMAMVKRKDSRGRAKRSGSGATNFSLLKQAGDVEENPGPTSMALPVTALLLPLALLLHAARPDIQMTQSPATIENTSLSASVGDRVTITCRASQGISSWLTWYQQKPEKAPKSLIYAASSLQSGVPSRFSGSGSGTDFTLTISSLQPEDFATYYCQQYDSYPITFGQGTRLEIKGGGGSGGGGSGGGGSQVQLQQWGAGLLKPSETLSLTCAVYGGSFSAYYWSWIRQPPGKGLEWIGDINHGGGTNYNPSLKSRVTISVDTSKNQFSLKLNSVTAADTAVYYCASLTAYWGQGSLVTVSSTREQKLISEEDLGSGTPFPSLAPPIMLLVDGKQQMVVVCLVLDVAPPGLDSPIWFSAGNGSALDAFTYGPSPATDGTWTNLAHLSLPSEELASWEPLVCHTGPGAEGHSRSTQPMHLSGEASTARTCPQEPLRGTPGGALWLGVLRLLLFKLLLFDLLLTCSCLCDPAGPLPSPATTTRLRALGSHRLHPATETGGREATSSPRPQPRDRRWGDTPPGRKPGSPVRAKRSGSGVKQTLNFDLLKLAGDVESNPGPSRSRGHMTEYKPTVRLATRDDVPRAVRTLAAAFADYPATRHTVDPDRHIERVTELQELFLTRVGLDIGKVWVADDGAAVAVWTTPESVEAGAVFAEIGPRMAELSGSRLAAQQQMEGLLAPHRPKEPAWFLATVGVSPDHQGKGLGSAVVLPGVEAAERAGVPAFLETSAPRNLPFYERLGFTVTADVEVPEGPRTWCMTRKPGA
modifications: Polynucleotide encoding a Synthetic Immune Receptor (SIR)

Tested on: target antigen-expressing cell line
Assay: Jurkat NFAT-GFP assay, coculture with target cell lines expressing the respective target antigen (summary Table 10A)
Format: cell-based, human
Parameters: key: The signs +/−, +, 2+ etc. after the name of the cell lines indicate the relative degree of positivity on the Jurkat-NFAT-GFP assay as measured by the % GFP positive cells; +: relative degree of positivity on the Jurkat-NFAT-GFP assay as measured by the % GFP positive cells; 2+: relative degree of positivity on the Jurkat-NFAT-GFP assay as measured by the % GFP positive cells
Details: relative % GFP positive cells; for NFAT-GFP ASSAY Positive Cell lines: RAJI: SIR-expressing Jurkat-NFAT-GFP cells cocultured with RAJI
In short: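 Positivity is scored when SIR-expressing reporter Jurkat cells show more GFP-positive cells than parental controls after coculture with the antigen-bearing line. Effector-to-target ratio is about 1:2, coculture lasts roughly 4–18 hours, and GFP is quantified by FACS.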

Molecule	NFAT-GFP ASSAY Positive Cell lines: NALM6 (SIR-expressing Jurkat-NFAT-GFP cells cocultured with NALM6)	NFAT-GFP ASSAY Positive Cell lines: RAJI	NFAT-GFP ASSAY Positive Cell lines: L428 (SIR-expressing Jurkat-NFAT-GFP cells cocultured with L428)
B1	(+/−)	RAJI (+), NALM6	
B2		RAJI (+)	
B3		RAJI (+/−)	
B4		RAJI (+/−)	
B5		RAJI (+)	
B6			L428 (+/−)
